Test results taken from patent US20250066422A1 (published 2025).
Each block holds one binder with its values, some of them ahead of it.

Target: T1, HLA-A*0201 (human)
T1 construct: MHC monomer first loaded with a UV-sensitive peptide that is cleaved and exchanged for the test peptide; captured on streptavidin; also called peptide-receptive MHC molecules
Test: UV-ligand exchange, streptavidin/anti-b2m sandwich ELISA
Text: Candidate peptides for the vaccines according to the present invention were further tested for immunogenicity by in vitro priming assays. The individual peptide-MHC complexes required for these assays were produced by UV-ligand exchange, where a UV-sensitive peptide is cleaved upon UV-irradiation, and exchanged with the peptide of interest as analyzed. Only peptide candidates that can effectively bind and stabilize the peptide-receptive MHC molecules prevent dissociation of the MHC complexes. To determine the yield of the exchange reaction, an ELISA was performed based on the detection of the light chain (β2m) of stabilized MHC complexes.
96 well MAXISorp plates (NUNC) were coated over night with 2ug/ml streptavidin in PBS at room temperature, washed 4× and blocked for 30 min at 37° C. in 2% BSA containing blocking buffer. Refolded HLAA*0201/MLA-001 monomers served as standards, covering the range of 8-500 ng/ml. Peptide-MHC monomers of the UV-exchange reaction were diluted 100 fold in blocking buffer. Samples were incubated for 1 h at 37° C., washed four times, incubated with 2ug/ml HRP conjugated anti-β2m for 1 h at 37° C., washed again and detected with TMB solution that is stopped with […]. Absorption was measured at 450 nm.

B4: CDC6-001 (peptide)
peptide: ILQDRLNQV
notes: synthetic peptide from CDC6
Average exchange yield in %: 48%

B5: ANKH-001 (peptide)
peptide: SISDVIAQV
notes: synthetic peptide from ANKH
Average exchange yield in %: 52%

B8: CCNA2-001 (peptide)
peptide: SLIDADPYL
notes: synthetic peptide from CCNA2
Average exchange yield in %: 54%

B14: ACACA-001 (peptide)
peptide: FLIPIYHQV
notes: synthetic peptide from ACACA
Average exchange yield in %: 61%

B16: ADAM8-001 (peptide)
peptide: KLLTEVHAA
notes: synthetic peptide from ADAM8
Average exchange yield in %: 67%

B18: HERC4-001 (peptide)
peptide: KVLEILHRV
notes: synthetic peptide from HERC4
Average exchange yield in %: 61%

B19: C11orf24-001 (peptide)
peptide: VVDKTLLLV
notes: synthetic peptide from C11orf24
Average exchange yield in %: 47%

B20: COL6A3-002 (peptide)
peptide: FLLDGSANV
notes: synthetic peptide from COL6A3
Average exchange yield in %: 81%

B21: ABCA13-001 (peptide)
peptide: ILFEINPKL
notes: synthetic peptide from ABCA13
Average exchange yield in %: 93%

B22: CERC-001 (peptide)
peptide: KLSWDLIYL
notes: synthetic peptide from CERCAM
Average exchange yield in %: 62%

B24: EEF2-002 (peptide)
peptide: GLAEDIDKGEV
notes: synthetic peptide from EEF2
Average exchange yield in %: 31%

B29: AURKB-001 (peptide)
peptide: RVLPPSALQSV
notes: synthetic peptide from AURKB
Average exchange yield in %: 54%

B33: ELANE-001 (peptide)
peptide: GLYPDAFAPV
notes: synthetic peptide from ELANE
Average exchange yield in %: 62%

B34: ANKS1A-001 (peptide)
peptide: ALYGRLEVV
notes: synthetic peptide from ANKS1A
Average exchange yield in %: 78%

B37: GFPT2-001 (peptide)
peptide: AIDGNNHEV
notes: synthetic peptide from GFPT2
Average exchange yield in %: 43%

B41: FAP-003 (peptide)
peptide: YVYQNNIYL
notes: synthetic peptide from FAP
Average exchange yield in %: 31%

B42: ATP-001 (peptide)
peptide: SLHFLILYV
notes: synthetic peptide from ATP2A1, ATP2A2
Average exchange yield in %: 19%

B43: DIO2-001 (peptide)
peptide: ALYDSVILL
notes: synthetic peptide from DIO2
Average exchange yield in %: 50%

B44: DST-002 (peptide)
peptide: KLDETNNTL
notes: synthetic peptide from DST
Average exchange yield in %: 59%

B48: C12orf44-001 (peptide)
peptide: AMLAVLHTV
notes: synthetic peptide from C12orf44
Average exchange yield in %: 34%

B51: COG4-001 (peptide)
peptide: SLVAVELEKV
notes: synthetic peptide from COG4
Average exchange yield in %: 57%

B55: FZD-001 (peptide)
peptide: VLAPLFVYL
notes: synthetic peptide from FZD1, FZD2, FZD7
Average exchange yield in %: 52%

B58: BUB1B-001 (peptide)
peptide: KIVDFSYSV
notes: synthetic peptide from BUB1B
Average exchange yield in %: 59%

B59: DST-001 (peptide)
peptide: NLIEKSIYL
notes: synthetic peptide from DST
Average exchange yield in %: 50%

B61: DPYSL4-001 (peptide)
peptide: NLLAEIHGV
notes: synthetic peptide from DPYSL4
Average exchange yield in %: 77%

B63: ABCA13-002 (peptide)
peptide: ALDENLHQL
notes: synthetic peptide from ABCA13
Average exchange yield in %: 36%

B66: P2RY6-001 (peptide)
peptide: TVIGFLLPFA
notes: synthetic peptide from P2RY6
Average exchange yield in %: 91%

B67: CEP250-002 (peptide)
peptide: ALWEKNTHL
notes: synthetic peptide from CEP250
Average exchange yield in %: 70%

B68: CNOT1-001 (peptide)
peptide: YLAPFLRNV
notes: synthetic peptide from CNOT1
Average exchange yield in %: 57%

The next lines start with the values.

Average exchange yield in %: 56%
B1: MXRA5-002 (peptide)
peptide: GLTDNIHLV
notes: synthetic peptide from MXRA5

Average exchange yield in %: 46%
B2: IGF2BP3-001 (peptide)
peptide: KIQEILTQV
notes: synthetic peptide from IGF2BP3

Average exchange yield in %: 49%
B3: HMMR-001 (peptide)
peptide: KLLEYIEEI
notes: synthetic peptide from HMMR

Average exchange yield in %: 51%
B6: SLC34A2-001 (peptide)
peptide: VLLPVEVATHYL
notes: synthetic peptide from SLC34A2

Average exchange yield in %: 68%
B7: KIF26B-001 (peptide)
peptide: TVAEVIQSV
notes: synthetic peptide from KIF26B

Average exchange yield in %: 51%
B9: JUNB-001 (peptide)
peptide: YLPHAPPFA
notes: synthetic peptide from JUNB

Average exchange yield in %: 47%
B10: HSP-002 (peptide)
peptide: SILTIEDGIFEV
notes: synthetic peptide from HSPA2, HSPA8

Average exchange yield in %: 47%
B11: SLI-001 (peptide)
peptide: SLYDNQITTV
notes: synthetic peptide from SLIT1, SLIT2

Average exchange yield in %: 75%
B12: RCN1-001 (peptide)
peptide: FQYDHEAFL
notes: synthetic peptide from RCN1, RCN3

Average exchange yield in %: 26%
B13: HNRNPH-001 (peptide)
peptide: SMSGYDQVL
notes: synthetic peptide from HNRNPH1, HNRNPH2

Average exchange yield in %: 41%
B15: VCAN-001 (peptide)
peptide: TLYPHTSQV
notes: synthetic peptide from VCAN

Average exchange yield in %: 67%
B17: MDN1-001 (peptide)
peptide: ALANQKLYSV
notes: synthetic peptide from MDN1

Average exchange yield in %: 49%
B23: RGS4-001 (peptide)
peptide: KIYNEFISV
notes: synthetic peptide from RGS4

Average exchange yield in %: 54%
B25: SNRNP20-001 (peptide)
peptide: GLIEIISNA
notes: synthetic peptide from SNRNP200

Average exchange yield in %: 49%
B26: VCAN-002 (peptide)
peptide: ALVDHTPYL
notes: synthetic peptide from VCAN

Average exchange yield in %: 65%
B27: NCBP1-001 (peptide)
peptide: AMFENFVSV
notes: synthetic peptide from NCBP1

Average exchange yield in %: 69%
B28: STAT2-001 (peptide)
peptide: SLLPVDIRQYL
notes: synthetic peptide from STAT2

Average exchange yield in %: 77%
B30: RCC1-001 (peptide)
peptide: TLISRLPAV
notes: synthetic peptide from RCC1

Average exchange yield in %: 84%
B31: RNF213-001 (peptide)
peptide: VLSVVEVTL
notes: synthetic peptide from RNF213

Average exchange yield in %: 65%
B32: THY1-001 (peptide)
peptide: SLLAQNTSWLL
notes: synthetic peptide from THY1

Average exchange yield in %: 50%
B35: SMYD3-001 (peptide)
peptide: SLIEDLILL
notes: synthetic peptide from SMYD3

Average exchange yield in %: 61%
B36: ORMDL1-002 (peptide)
peptide: TLTNIIHNL
notes: synthetic peptide from ORMDL1

Average exchange yield in %: 47%
B38: SERPINB3-001 (peptide)
peptide: KLFGEKTYL
notes: synthetic peptide from SERPINB3

Average exchange yield in %: 51%
B39: PI4KA-001 (peptide)
peptide: AMATESILHFA
notes: synthetic peptide from PI4KA

Average exchange yield in %: 37%
B40: WNT5A-001 (peptide)
peptide: AMSSKFFLV
notes: synthetic peptide from WNT5A

Average exchange yield in %: 57%
B45: MXRA5-001 (peptide)
peptide: TLSSIKVEV
notes: synthetic peptide from MXRA5

Average exchange yield in %: 70%
B46: TLX3-001 (peptide)
peptide: SLAPAGVIRV
notes: synthetic peptide from TLX3

Average exchange yield in %: 53%
B47: ITGA11-001 (peptide)
peptide: FLHHLEIEL
notes: synthetic peptide from ITGA11

Average exchange yield in %: 57%
B49: IFT81-001 (peptide)
peptide: ALASVIKEL
notes: synthetic peptide from IFT81

Average exchange yield in %: 83%
B50: MAGEF1-001 (peptide)
peptide: ILFPDIIARA
notes: synthetic peptide from MAGEF1

Average exchange yield in %: 48%
B52: OLFM1-001 (peptide)
peptide: ILMGTELTQV
notes: synthetic peptide from OLFM1

Average exchange yield in %: 47%
B53: PLEKHA8-001 (peptide)
peptide: AILDTLYEV
notes: synthetic peptide from PLEKHA8

Average exchange yield in %: 76%
B54: NCAPD2-001 (peptide)
peptide: SLAGDVALQQL
notes: synthetic peptide from NCAPD2

Average exchange yield in %: 82%
B56: NET1-001 (peptide)
peptide: ILVSWLPRL
notes: synthetic peptide from NET1

Average exchange yield in %: 56%
B57: SLC3A2-001 (peptide)
peptide: SLLESNKDLLL
notes: synthetic peptide from SLC3A2

Average exchange yield in %: 50%
B60: NEFH-001 (peptide)
peptide: HLLEDIAHV
notes: synthetic peptide from NEFH

Average exchange yield in %: 63%
B62: VPS13B-001 (peptide)
peptide: SLWGGDVVL
notes: synthetic peptide from VPS13B

Average exchange yield in %: 41%
B64: IL8-001 (peptide)
peptide: KLAVALLAA
notes: synthetic peptide from IL8

Average exchange yield in %: 57%
B65: MMP12-003 (peptide)
peptide: KIQEMQHFL
notes: synthetic peptide from MMP12
